Laboratory results published in the supplement of paper PMC10065799, “High-throughput profiling of sequence recognition by tyrosine kinases and SH2 domains using bacterial peptide display” (eLife, 2023).

Tests used:
[1] = molecular target: c-Src SH2; assay: SH2 binding enrichment of the phosphorylated peptide, bacterial display (enrichment ratio); higher = better substrate or ligand; peptides without Tyr show the background
[2] = molecular target: Grb2 SH2 (UniProt P62993); assay: as above
[3] = molecular target: SHP2-C SH2; assay: as above
[4] = tested on: c-Src; assay: phosphorylation enrichment, bacterial display (enrichment ratio); higher = better substrate or ligand; peptides without Tyr show the background
[5] = molecular target: Fyn (UniProt P06241); assay: as above
[6] = tested on: Fer (mouse); assay: as above
[7] = molecular target: MERTK (UniProt Q12866); assay: as above
[8] = molecular target: FGFR1 (UniProt P11362); assay: as above
[9] = molecular target: EPHB2 (UniProt P29323); assay: as above
[10] = molecular target: Hck (UniProt P08631); assay: as above
[11] = molecular target: FGFR3 (UniProt P22607); assay: as above
[12] = molecular target: Jak2 (UniProt O60674); assay: as above
[13] = molecular target: EPHB1 (UniProt P54762); assay: as above
[14] = tested on: AncSZ; assay: as above
[15] = tested on: c-Abl (mouse); assay: as above
[16] = molecular target: Fes (UniProt P07332); assay: as above
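Throughout, for SH2 binding enrichment of the phosphorylated peptide, bacterial display: peptide library displayed on the E. coli surface as eCPX fusions, selected cells deep-sequenced, score is each peptide's frequency after selection divided by its frequency in the input.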
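Throughout, for phosphorylation enrichment, bacterial display: 11-residue human phosphosite peptides and single-mutation variants displayed on the E. coli surface, counted by deep sequencing, each peptide's frequency after selection divided by its frequency in the unselected input library; frequency after pTyr selection over input frequency; kinase dosed for 20-30% of maximal phosphorylation in three min.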

Sequence of Fes (P07332 whole entry, looked up, the tested form may be a part): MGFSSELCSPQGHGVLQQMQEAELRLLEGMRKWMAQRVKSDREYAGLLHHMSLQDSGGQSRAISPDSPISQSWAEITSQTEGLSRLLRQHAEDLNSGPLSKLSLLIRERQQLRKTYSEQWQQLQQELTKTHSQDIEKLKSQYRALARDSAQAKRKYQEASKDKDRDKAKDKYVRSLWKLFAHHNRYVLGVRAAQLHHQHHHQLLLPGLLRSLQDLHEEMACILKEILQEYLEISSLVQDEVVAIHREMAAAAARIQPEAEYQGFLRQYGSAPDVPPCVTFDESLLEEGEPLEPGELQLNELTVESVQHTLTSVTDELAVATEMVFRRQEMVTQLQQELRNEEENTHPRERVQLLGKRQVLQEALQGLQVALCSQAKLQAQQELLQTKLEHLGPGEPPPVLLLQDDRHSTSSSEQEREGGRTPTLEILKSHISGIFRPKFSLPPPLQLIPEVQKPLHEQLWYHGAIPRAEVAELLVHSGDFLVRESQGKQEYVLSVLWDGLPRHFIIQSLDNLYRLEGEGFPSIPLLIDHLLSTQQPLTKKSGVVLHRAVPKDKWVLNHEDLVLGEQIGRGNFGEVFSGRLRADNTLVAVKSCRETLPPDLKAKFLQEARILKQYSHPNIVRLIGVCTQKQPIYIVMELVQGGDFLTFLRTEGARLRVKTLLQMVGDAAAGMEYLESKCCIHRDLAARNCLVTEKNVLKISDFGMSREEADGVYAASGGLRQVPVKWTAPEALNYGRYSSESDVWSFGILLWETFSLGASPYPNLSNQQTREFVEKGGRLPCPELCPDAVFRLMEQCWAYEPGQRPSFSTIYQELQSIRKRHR
Sequence of FGFR3 (P22607 whole entry, looked up): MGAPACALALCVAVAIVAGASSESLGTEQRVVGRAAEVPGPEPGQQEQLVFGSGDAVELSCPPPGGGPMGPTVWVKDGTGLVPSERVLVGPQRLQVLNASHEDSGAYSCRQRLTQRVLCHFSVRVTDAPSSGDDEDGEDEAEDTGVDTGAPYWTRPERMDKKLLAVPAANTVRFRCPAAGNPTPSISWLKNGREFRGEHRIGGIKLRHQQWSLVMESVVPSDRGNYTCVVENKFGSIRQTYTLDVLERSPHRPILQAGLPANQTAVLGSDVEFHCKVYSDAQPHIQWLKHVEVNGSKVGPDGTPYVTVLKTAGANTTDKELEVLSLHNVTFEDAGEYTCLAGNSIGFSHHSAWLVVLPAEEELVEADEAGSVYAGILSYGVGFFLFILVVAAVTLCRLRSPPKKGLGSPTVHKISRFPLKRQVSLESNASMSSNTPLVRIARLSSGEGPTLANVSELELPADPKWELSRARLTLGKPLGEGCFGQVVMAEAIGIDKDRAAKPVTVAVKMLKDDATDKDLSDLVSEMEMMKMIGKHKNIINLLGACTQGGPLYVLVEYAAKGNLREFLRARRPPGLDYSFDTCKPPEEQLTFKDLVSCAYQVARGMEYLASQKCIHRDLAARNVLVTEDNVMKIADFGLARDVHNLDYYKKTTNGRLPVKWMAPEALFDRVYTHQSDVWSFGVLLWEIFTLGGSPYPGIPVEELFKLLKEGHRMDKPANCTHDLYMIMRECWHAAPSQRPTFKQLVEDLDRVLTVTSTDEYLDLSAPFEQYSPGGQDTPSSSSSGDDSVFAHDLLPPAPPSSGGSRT
Sequence of Jak2 (O60674 whole entry, looked up): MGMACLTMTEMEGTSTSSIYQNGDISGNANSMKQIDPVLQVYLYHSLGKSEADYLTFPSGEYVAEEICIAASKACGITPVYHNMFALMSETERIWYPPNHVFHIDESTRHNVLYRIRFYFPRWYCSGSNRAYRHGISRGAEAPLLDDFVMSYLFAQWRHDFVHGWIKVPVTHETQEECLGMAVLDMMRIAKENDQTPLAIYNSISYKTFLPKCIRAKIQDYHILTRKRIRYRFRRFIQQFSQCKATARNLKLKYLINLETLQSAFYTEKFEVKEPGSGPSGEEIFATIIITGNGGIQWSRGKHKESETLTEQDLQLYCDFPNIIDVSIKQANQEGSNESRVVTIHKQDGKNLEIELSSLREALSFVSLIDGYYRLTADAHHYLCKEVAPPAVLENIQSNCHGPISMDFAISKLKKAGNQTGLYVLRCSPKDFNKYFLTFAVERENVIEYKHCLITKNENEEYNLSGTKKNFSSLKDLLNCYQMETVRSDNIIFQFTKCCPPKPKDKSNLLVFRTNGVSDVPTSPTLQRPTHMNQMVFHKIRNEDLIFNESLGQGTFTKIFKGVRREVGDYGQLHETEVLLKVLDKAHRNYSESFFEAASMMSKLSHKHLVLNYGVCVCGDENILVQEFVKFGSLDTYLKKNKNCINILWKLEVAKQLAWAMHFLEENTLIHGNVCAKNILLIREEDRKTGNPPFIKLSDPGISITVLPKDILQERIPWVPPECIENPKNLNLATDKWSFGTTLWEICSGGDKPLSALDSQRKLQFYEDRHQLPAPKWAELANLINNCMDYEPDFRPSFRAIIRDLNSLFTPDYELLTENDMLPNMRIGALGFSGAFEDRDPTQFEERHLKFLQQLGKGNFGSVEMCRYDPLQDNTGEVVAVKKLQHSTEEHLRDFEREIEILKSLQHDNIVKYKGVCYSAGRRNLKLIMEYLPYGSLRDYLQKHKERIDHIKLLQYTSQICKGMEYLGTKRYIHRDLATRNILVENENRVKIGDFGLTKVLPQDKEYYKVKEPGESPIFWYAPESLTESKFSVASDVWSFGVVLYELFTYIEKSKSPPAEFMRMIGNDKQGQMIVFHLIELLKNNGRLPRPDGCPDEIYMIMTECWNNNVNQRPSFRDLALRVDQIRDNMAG
Sequence of EPHB1 (P54762 whole entry, looked up): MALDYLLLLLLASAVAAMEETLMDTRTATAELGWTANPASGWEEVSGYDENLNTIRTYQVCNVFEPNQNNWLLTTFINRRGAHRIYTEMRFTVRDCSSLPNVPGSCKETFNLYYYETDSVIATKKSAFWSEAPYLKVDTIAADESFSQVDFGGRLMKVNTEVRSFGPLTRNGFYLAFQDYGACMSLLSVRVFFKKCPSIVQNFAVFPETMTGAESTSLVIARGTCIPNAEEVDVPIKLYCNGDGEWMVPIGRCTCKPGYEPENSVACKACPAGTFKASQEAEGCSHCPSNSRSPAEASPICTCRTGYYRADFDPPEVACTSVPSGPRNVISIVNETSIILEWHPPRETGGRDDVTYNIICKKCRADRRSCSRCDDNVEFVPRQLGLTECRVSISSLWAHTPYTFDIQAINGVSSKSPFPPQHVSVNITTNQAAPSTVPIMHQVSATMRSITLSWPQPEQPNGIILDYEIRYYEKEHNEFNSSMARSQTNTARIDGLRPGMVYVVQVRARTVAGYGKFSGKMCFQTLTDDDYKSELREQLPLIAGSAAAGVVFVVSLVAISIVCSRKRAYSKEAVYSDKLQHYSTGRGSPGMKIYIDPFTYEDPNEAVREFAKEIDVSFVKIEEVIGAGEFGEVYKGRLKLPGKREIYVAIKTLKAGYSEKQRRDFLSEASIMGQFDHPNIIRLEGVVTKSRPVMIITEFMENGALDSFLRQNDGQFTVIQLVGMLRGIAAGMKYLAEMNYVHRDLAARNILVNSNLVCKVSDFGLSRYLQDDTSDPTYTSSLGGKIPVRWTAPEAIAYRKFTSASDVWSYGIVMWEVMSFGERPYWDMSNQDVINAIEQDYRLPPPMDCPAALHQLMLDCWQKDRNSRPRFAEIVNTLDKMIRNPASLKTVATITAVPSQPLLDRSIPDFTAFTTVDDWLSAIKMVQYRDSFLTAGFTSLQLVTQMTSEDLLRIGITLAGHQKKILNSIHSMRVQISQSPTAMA
Sequence of FGFR1 (P11362 whole entry, looked up): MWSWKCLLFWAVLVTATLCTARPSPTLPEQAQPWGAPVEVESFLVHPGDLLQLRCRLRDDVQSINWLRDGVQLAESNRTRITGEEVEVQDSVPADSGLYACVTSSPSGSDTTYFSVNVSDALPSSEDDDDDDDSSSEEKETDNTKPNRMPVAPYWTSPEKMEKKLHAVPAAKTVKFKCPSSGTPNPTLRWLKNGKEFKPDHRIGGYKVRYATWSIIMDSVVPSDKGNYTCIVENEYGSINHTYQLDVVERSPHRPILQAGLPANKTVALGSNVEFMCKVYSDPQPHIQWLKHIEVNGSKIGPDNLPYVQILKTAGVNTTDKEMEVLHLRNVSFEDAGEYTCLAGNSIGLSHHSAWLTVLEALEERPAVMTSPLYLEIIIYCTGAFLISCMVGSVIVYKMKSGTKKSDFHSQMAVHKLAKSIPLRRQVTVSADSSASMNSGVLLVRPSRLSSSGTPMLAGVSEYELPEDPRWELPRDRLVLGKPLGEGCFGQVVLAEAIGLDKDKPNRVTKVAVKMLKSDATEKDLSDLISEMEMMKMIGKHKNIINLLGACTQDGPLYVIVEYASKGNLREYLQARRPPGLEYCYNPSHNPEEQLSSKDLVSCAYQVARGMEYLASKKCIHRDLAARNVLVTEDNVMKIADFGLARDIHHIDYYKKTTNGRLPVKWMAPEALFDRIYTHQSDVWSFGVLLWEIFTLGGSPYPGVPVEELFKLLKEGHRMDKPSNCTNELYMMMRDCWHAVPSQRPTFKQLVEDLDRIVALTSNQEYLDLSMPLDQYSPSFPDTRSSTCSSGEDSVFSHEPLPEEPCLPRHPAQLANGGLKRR
Sequence of Hck (P08631 whole entry, looked up): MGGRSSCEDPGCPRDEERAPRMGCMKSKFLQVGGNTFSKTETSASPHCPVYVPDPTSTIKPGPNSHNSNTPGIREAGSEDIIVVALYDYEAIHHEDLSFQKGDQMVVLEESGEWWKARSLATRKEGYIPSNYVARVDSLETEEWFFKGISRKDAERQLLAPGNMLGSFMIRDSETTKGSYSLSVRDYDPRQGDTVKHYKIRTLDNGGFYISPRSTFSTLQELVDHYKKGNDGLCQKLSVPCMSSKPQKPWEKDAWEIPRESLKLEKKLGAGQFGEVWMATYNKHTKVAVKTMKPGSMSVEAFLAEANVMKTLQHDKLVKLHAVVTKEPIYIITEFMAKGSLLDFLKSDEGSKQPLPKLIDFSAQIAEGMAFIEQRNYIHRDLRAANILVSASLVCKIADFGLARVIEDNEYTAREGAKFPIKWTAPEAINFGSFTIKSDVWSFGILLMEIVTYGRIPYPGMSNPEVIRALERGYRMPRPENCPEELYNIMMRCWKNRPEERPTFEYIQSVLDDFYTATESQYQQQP

| SH2 binding enrichment [1] | SH2 binding enrichment [2] | SH2 binding enrichment [3] | Sequence | phosphorylation enrichment [4] | phosphorylation enrichment [5] | phosphorylation enrichment [6] | phosphorylation enrichment [7] | phosphorylation enrichment [8] | phosphorylation enrichment [9] | phosphorylation enrichment [10] | phosphorylation enrichment [11] | phosphorylation enrichment [12] | phosphorylation enrichment [13] | phosphorylation enrichment [14] | phosphorylation enrichment [15] | phosphorylation enrichment [16] |
| --- | --- | --- | --- | --- | --- | --- | --- | --- | --- | --- | --- | --- | --- | --- | --- | --- |
| 0.824 | 0.927 | 1.02 | NKFTTYLPRLP [C9orf24_Y126_YF] | 0.425 | 0.477 | 0.36 | 0.42 | 0.47 | 0.445 | 0.507 | 0.503 | 0.666 | 0.437 | 0.568 | 0.482 | 0.784 |
| 2.11 | 0.654 | 0.633 | VEGISYDFIPT [CBS_Y308_G307S] | 0.596 | 0.529 | 0.96 | 2.96 | 0.564 | 0.568 | 1.9 | 0.941 | 0.984 | 0.578 | 1.28 | 0.754 | 0.982 |
| 0.405 | 0.788 | 0.832 | GFQPEYGQPAG [SYP_Y278_D277E_YF] | 0.671 | 0.592 | 0.506 | 0.424 | 0.479 | 0.542 | 0.4 | 0.917 | 0.723 | 0.501 | 0.685 | 0.586 | 0.741 |
| 2.77 | 0.955 | 0.977 | GYRVYYTPDSR [PTPRF_Y451] | 1.54 | 1.24 | 0.477 | 5.3 | 0.73 | 2.15 | 2.69 | 0.675 | 2.29 | 2.35 | 0.794 | 1.89 | 0.768 |
| 0.77 | 1.05 | 0.981 | IFSGIYFKPES [L2HGDH_Y102_H98Y_YF] | 3.26 | 2.7 | 0.459 | 6 | 1.3 | 1.35 | 2.64 | 1.4 | 6.32 | 1.84 | 1.51 | 11.2 | 0.78 |
| 3.72 | 0.96 | 0.91 | HVSISYDIPLT [GAB1_Y307_P311L] | 1.01 | 1.31 | 1.12 | 4.9 | 1.09 | 1.48 | 0.99 | 1.53 | 1.86 | 1.19 | 3.56 | 1.96 | 2.15 |
| 0.869 | 0.83 | 0.679 | YADGVYLALEE [DUOX2_Y70_Q71L] | 2.97 | 2.28 | 0.531 | 1.13 | 1.12 | 1.28 | 1.59 | 1.18 | 1.39 | 1.82 | 1.66 | 0.899 | 1.31 |
| 0.426 | 0.732 | 0.502 | QELRRYLKSSV [MICA_Y194_G198S] | 0.298 | 0.36 | 0.292 | 0.213 | 0.44 | 0.349 | 0.653 | 0.483 | 0.457 | 0.322 | 0.543 | 0.349 | 0.6 |
| 2 | 0.899 | 0.811 | PNEAVYTKMMT [G6PD_Y401] | 4.58 | 2.31 | 6.07 | 1.48 | 0.555 | 0.479 | 1.96 | 0.571 | 0.838 | 0.506 | 1 | 0.674 | 0.972 |
| 0.798 | 1.25 | 0.988 | ATDLAYYLVRK [ASL_Y375] | 1.27 | 0.85 | 0.786 | 1.19 | 4.91 | 0.543 | 0.885 | 4.21 | 3.03 | 0.602 | 1.63 | 1.04 | 1.41 |
| 0.601 | 1.04 | 1.05 | PINEPYGDDMD [JUP_Y693] | 0.858 | 1.03 | 0.837 | 0.919 | 1.15 | 0.985 | 0.981 | 1.34 | 1.89 | 0.944 | 2.44 | 1.25 | 1.75 |
| 0.735 | 0.677 | 0.584 | GKTQQYECKWY [BCR_Y751_D752E] | 0.522 | 0.443 | 0.549 | 0.487 | 0.499 | 0.6 | 0.447 | 0.642 | 0.97 | 0.507 | 0.936 | 0.681 | 1.05 |
| 0.843 | 1.2 | 1.12 | HSHTRYERNIE [F2_Y434_R431H] | 0.795 | 0.446 | 0.655 | 0.5 | 0.62 | 0.387 | 0.477 | 0.555 | 0.47 | 0.67 | 0.766 | 0.694 | 0.85 |
| 0.644 | 1.05 | 13 | PQGVSYIYTID [DCX_Y103_R102S] | 6.93 | 10.6 | 0.728 | 3.15 | 1.06 | 0.856 | 5.22 | 1.64 | 1.55 | 0.985 | 1.62 | 1.32 | 1.79 |
| 0.611 | 1.21 | 0.701 | PVDVAYRHGYF [PLEC_Y2967_R2969H] | 0.905 | 0.536 | 0.543 | 0.687 | 0.863 | 1.48 | 0.695 | 1.1 | 1.9 | 0.752 | 1.71 | 1.4 | 1.05 |
| 0.586 | 0.996 | 0.637 | GVIRHSVVCST [BTK_Y334_Y334S] | 0.45 | 0.42 | 0.477 | 0.446 | 0.453 | 0.456 | 0.436 | 0.51 | 0.67 | 0.508 | 0.783 | 0.607 | 0.82 |
